Data reported in patent US20250076311A1 (Chugai, published 2025).
Positions count from the first letter of the chain named. One block for each binder: values may come before it.

Tests used:
[1] = target: T1, cynomolgus monkey FcγRIIIaS extracellular domain with C-terminal His-tag (cynomolgus monkey, UniProt Q8SPW2 21-206 at identity 1.00)); test: SPR, antibody captured, FcγR analyte
T1 construct: also called cyno FcgRIIIaS; cynoFcγRIIIaS
T1 chain: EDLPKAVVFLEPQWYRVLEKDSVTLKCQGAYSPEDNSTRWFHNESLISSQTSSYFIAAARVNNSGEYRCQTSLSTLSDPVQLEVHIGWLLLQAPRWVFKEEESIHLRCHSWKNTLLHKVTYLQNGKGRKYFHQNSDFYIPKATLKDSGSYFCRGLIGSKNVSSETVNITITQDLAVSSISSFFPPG
Procedure: (§1) The kinetic analysis of interactions between these antibodies and FcγR was carried out using BIACORE® T200 or BIACORE® 4000 (GE Healthcare). HBS-EP+ (GE Healthcare) was used as the running buffer, and the measurement temperature was set to 25° C. […] After the measurement, the antibody captured on the chip was washed off by allowing reaction with 10 mM glycine-HCl, pH1.5 and 25 mM NaOH so that the chip was regenerated and used repeatedly. The sensorgrams obtained as measurement results were analyzed by the 1:1 Langmuir binding model using the BIACORE® Evaluation Software to calculate the binding rate constant ka (L/mol/s) and dissociation rate constant kd (1/s), and the dissociation constant KD (mol/L) was calculated from these values. […] Regarding such interactions, KD values were calculated using the following 1:1 binding model described in BIACORE® T100 Software Handbook BR1006-48 Edition AE.

[2] = target: T1, cynomolgus monkey FcγRIIIaS …; test: SPR, KD(SG1)/KD(variant)
Procedure: as §1

[3] = target: T2, cynomolgus monkey FcγRIIa1 extracellular domain with C-terminal His-tag (cynomolgus monkey); test: SPR (Biacore), antibody captured, FcgR as analyte
T2 construct: also called cyno FcgRIIa1; cynoFcγRIIa1
T2 chain: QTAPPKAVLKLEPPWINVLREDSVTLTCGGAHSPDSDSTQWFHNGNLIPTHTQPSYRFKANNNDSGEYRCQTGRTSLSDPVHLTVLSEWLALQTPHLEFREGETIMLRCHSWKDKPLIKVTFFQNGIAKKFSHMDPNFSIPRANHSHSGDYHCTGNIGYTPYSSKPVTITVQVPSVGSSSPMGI
Procedure: as §1

[4] = target: T3, human FcγRIIIaV extracellular domain with C-terminal His-tag (human, UniProt P08637 17-208); test: SPR (Biacore), antibody captured, FcgR as analyte
T3 construct: also called human FcgRIIIaV
Procedure: as §1
T3 sequence (P08637 17-208 F176V): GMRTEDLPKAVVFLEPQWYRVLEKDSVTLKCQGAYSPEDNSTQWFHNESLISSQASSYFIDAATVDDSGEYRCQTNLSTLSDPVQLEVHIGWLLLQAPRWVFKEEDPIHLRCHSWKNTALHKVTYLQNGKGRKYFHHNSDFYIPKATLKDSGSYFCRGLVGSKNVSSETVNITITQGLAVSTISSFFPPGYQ

[5] = target: T4, human FcγRIIb extracellular domain with C-terminal His-tag (human, UniProt P31994 43-217); test: SPR; KD of SG1 / KD of variant
T4 construct: also called human FcgRIIb; FcgRIIb
T4 sequence: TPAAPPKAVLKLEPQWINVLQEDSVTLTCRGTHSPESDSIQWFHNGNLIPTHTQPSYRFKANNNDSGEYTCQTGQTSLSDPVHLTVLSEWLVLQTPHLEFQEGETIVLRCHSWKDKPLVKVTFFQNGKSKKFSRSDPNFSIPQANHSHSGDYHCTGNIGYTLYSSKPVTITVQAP

[6] = target: T5, cynomolgus monkey FcγRIIa3 extracellular domain with C-terminal His-tag (cynomolgus monkey); test: SPR; KD of SG1 / KD of variant
T5 construct: also called cyno FcγRIIa3; FcgRIIa3
T5 chain: T2 chain with P95T, T121A, A128S, H133P, D135N

[7] = target: T6, cynomolgus monkey FcγRIIa2 extracellular domain with C-terminal His-tag (cynomolgus monkey); test: SPR; KD of SG1 / KD of variant
T6 construct: also called cyno FcγRIIa2; FcgRIIa2
T6 chain: T2 chain with P95T, T121A, I127K, A128S, K130N, D135N, R142Q

[8] = target: T7, human FcγRIIaH extracellular domain with C-terminal His-tag (human, UniProt P12318 34-217); test: SPR; KD of SG1 / KD of variant
T7 construct: also called human FcγRIIa (type H); FcgRIIaH
T7 sequence: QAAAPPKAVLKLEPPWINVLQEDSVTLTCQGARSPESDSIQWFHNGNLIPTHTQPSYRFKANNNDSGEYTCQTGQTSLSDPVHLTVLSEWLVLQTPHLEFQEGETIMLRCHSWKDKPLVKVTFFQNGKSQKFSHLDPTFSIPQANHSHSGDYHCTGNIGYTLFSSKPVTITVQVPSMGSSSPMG

[9] = target: T8, human FcγRIIIaV extracellular domain with C-terminal His-tag (human, UniProt P08637 17-208); test: SPR; KD of SG1 / KD of variant
T8 construct: also called human FcgRIIIaV; FcgRIIIaV
T8 sequence (P08637 17-208 F176V): as the sequence (P08637 17-208 F176V) above

[10] = target: T9, cynomolgus monkey FcγRIIa1 extracellular domain with C-terminal His-tag (cynomolgus monkey); test: SPR; KD of SG1 / KD of variant
T9 construct: also called cyno FcγRIIa1; FcgRIIa1
T9 chain: T2 chain

[11] = target: T10, cynomolgus monkey FcγRIIb extracellular domain with C-terminal His-tag (cynomolgus monkey); test: SPR; KD of SG1 / KD of variant
T10 construct: also called cyno FcγRIIb; cynoFcγRIIb
T10 chain: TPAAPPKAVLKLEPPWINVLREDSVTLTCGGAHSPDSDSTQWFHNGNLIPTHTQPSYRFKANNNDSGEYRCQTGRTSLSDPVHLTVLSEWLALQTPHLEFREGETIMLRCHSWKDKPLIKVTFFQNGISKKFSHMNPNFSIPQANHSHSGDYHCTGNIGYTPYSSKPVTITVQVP

[12] = target: T11, cynomolgus monkey FcγRIIIaS extracellular domain with C-terminal His-tag (cynomolgus monkey, UniProt Q8SPW2 21-206 at identity 1.00)); test: SPR; KD of SG1 / KD of variant
T11 construct: also called cyno FcγRIIIaS; FcgRIIIaS
T11 chain: T1 chain

[13] = target: T12, human FcγRIIaR extracellular domain with C-terminal His-tag (human, UniProt P12318 34-217); test: SPR; KD of SG1 / KD of variant
T12 construct: also called human FcγRIIa (type R); FcgRIIaR
T12 chain: T7 sequence with H134R

[14] = target: T13, human FcγRIIb extracellular domain, His-tagged (human, UniProt P31994 43-217); test: SPR Biacore, antibody captured, FcgR analyte
T13 construct: also called FcgRIIb (human); not shown: C-terminal His-tag
T13 sequence: T4 sequence

[15] = target: T14, cynomolgus monkey FcγRIIa3 extracellular domain, His-tagged (cynomolgus monkey); test: SPR Biacore, KD(SG1)/KD(variant)
T14 construct: also called cyno FcγRIIa3; cynoFcgRIIa3; not shown: C-terminal His-tag
T14 chain: T2 chain with P95T, T121A, A128S, H133P, D135N
Procedure: as §1

[16] = target: T13, human FcγRIIb extracellular domain, …; test: SPR Biacore, KD(SG1)/KD(variant)
Procedure: as §1

[17] = target: T15, cynomolgus monkey FcγRIIa1 extracellular domain, His-tagged (cynomolgus monkey); test: SPR Biacore, antibody captured, FcgR analyte
T15 construct: also called cyno FcγRIIa1; cynoFcgRIIa1; not shown: C-terminal His-tag
T15 chain: T2 chain

[18] = target: T15, cynomolgus monkey FcγRIIa1 …; test: SPR Biacore, KD(SG1)/KD(variant)
Procedure: as §1

[19] = target: T16, cynomolgus monkey FcγRIIa2 extracellular domain, His-tagged (cynomolgus monkey); test: SPR Biacore, antibody captured, FcgR analyte
T16 construct: also called cyno FcγRIIa2; cynoFcgRIIa2; not shown: C-terminal His-tag
T16 chain: T2 chain with P95T, T121A, I127K, A128S, K130N, D135N, R142Q

[20] = target: T17, human FcγRIIaR extracellular domain, His-tagged (human, UniProt P12318 34-217); test: SPR Biacore, KD(SG1)/KD(variant)
T17 construct: also called human FcγRIIa (type R); FcgRIIaR; not shown: C-terminal His-tag
T17 chain: T7 sequence with H134R
Procedure: as §1

B3: M103205H795-MY285 (heavy chain) with M103202L889-SK1 (light chain) (antibody, human IgG1, kappa, name in EU numbering)
heavy: QVTLKESGPVLVKPTETLTLTCTVSGIDLSHDDISWVRQAPGKGLEWVGIISYAGSTYYASWAKGRLTISKDTSKNQVVLTMTNMDPVDTATYYCARGVPAYSHGGDLWGQGTLVTVSSASTKGPSVFPLAPSSKSTSGGTAALGCLVKDYFPEPVTVSWNSGALTSGVHTFPAVLQSSGLYSLSSVVTVPSSSLGTQTYICNVNHKPSNTKVDKKVEPKSCDKTHTCPPCPAPELLIGPSVFLFPPKPKDTLMISRTPEVTCVVVDVSDEDPEVKFNWYVDGVEVHNAKTKPREELYNSTYRVVSVLTVLHQDWLNGKEYKCKVSNKALPKPIEKTISKAKGQPREPQVYTLPPSREEMTKNQVSLTCLVKGFYPSDIAVEWESNGQPENNYKTTPPVLDSDGSFFLYSKLTVDKSRWQQGNVFSCSVMHEALHNHYTQKSLSLSP
light: DIVMTQSPATLSLSPGERATLSCTSSQSVYHANWLSWFQQKPGQPPKLLIYWASTLAYGVPSRFSGSGSGTDFTLTISSLQPEDAATYYCAGGYGGGRYAFGQGTKVEIKRTVAAPSVFIFPPSDEQLKSGTASVVCLLNNFYPREAKVQWKVDNALQSGNSQESVTEQDSKDSTYSLSSTLTLSKADYEKHKVYACEVTHQGLSSPVTKSFNRGEC
notes: Substitutions introduced into M103205H795-SG1; positions in EU numbering
KD fold (SG1 = 1) [5]: 1.2 fold
KD fold (SG1 = 1) [6]: 2.5 fold
KD fold (SG1 = 1) [7]: 3 fold
KD fold (SG1 = 1) [8]: 6.3 fold
KD fold (SG1 = 1) [9]: 0.05 fold
KD fold (SG1 = 1) [10]: 2 fold
KD fold (SG1 = 1) [11]: 3.1 fold
KD fold (SG1 = 1) [12]: 0.12 fold
KD fold (SG1 = 1) [13]: 2 fold

B6: M103205H795-MY196/M103202L889-SK1 (antibody, human IgG1, kappa, name in EU numbering)
heavy: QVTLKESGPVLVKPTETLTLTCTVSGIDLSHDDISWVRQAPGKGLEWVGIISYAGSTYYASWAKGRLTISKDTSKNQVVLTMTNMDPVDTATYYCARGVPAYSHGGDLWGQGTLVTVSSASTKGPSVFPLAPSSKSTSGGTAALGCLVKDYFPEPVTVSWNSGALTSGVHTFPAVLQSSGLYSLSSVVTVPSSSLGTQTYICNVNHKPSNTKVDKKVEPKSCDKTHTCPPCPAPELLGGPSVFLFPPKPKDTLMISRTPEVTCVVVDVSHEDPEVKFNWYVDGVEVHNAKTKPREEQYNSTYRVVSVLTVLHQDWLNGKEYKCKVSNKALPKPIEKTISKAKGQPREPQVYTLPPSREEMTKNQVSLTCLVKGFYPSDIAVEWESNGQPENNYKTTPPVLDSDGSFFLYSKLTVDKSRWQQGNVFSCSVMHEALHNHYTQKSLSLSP
light: B3 light
notes: Substitution introduced into M103205H795-SG1; EU numbering
Kd [14]: 3.2 µM

B7: M103205H795-MY071/M103202L889-SK1 (antibody, human IgG1, kappa, name in EU numbering)
heavy: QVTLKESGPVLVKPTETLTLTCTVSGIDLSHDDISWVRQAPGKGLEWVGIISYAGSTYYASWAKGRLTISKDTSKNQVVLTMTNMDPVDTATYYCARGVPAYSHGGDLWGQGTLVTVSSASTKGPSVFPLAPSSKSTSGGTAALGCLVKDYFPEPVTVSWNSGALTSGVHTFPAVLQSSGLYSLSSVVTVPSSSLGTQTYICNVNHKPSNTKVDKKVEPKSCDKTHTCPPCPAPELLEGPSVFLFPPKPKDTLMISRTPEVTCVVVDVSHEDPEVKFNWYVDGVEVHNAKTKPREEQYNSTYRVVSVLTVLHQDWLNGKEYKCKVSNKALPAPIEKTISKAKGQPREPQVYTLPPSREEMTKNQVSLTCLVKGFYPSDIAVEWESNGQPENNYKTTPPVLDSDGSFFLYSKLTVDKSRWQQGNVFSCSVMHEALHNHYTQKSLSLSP
light: B3 light
notes: as for B6
KD fold (SG1 = 1) [15]: 1.8 fold
KD fold (SG1 = 1) [16]: 1.5 fold
Kd [14]: 3.1 µM

B8: M103205H795-MY281 (heavy chain) with M103202L889-SK1 (light chain) (antibody, human IgG1, kappa, name in EU numbering)
heavy: B3 heavy with I238Q
light: B3 light
notes: as for B3
KD fold (SG1 = 1) [8]: 5.3 fold
KD fold (SG1 = 1) [12]: 0.49 fold

B11: M103205H795-MY042/M103202L889-SK1 (antibody, human IgG1, kappa, name in EU numbering)
heavy: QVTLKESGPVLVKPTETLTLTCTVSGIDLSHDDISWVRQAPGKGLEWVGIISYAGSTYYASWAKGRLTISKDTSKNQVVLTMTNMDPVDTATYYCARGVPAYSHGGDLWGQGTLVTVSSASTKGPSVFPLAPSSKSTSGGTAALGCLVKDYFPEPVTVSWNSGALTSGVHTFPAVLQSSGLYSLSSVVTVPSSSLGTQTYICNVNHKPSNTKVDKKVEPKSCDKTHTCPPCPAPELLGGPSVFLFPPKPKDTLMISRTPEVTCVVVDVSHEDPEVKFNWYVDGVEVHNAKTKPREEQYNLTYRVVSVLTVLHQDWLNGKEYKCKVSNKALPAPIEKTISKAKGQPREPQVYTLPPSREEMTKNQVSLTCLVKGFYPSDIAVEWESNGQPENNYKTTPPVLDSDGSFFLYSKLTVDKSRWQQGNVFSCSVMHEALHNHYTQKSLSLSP
light: B3 light
notes: as for B6
Kd [17]: 0.51 µM

B12: M103205H795-MY274 (heavy chain) with M103202L889-SK1 (light chain) (antibody, human IgG1, kappa, name in EU numbering)
heavy: B3 heavy with I238T, L297Q, P398K
light: B3 light
notes: as for B3
KD fold (SG1 = 1) [8]: 8.5 fold
KD fold (SG1 = 1) [9]: 0.32 fold
KD fold (SG1 = 1) [12]: 0.58 fold

B13: M103205H795-MY070/M103202L889-SK1 (antibody, human IgG1, kappa, name in EU numbering)
heavy: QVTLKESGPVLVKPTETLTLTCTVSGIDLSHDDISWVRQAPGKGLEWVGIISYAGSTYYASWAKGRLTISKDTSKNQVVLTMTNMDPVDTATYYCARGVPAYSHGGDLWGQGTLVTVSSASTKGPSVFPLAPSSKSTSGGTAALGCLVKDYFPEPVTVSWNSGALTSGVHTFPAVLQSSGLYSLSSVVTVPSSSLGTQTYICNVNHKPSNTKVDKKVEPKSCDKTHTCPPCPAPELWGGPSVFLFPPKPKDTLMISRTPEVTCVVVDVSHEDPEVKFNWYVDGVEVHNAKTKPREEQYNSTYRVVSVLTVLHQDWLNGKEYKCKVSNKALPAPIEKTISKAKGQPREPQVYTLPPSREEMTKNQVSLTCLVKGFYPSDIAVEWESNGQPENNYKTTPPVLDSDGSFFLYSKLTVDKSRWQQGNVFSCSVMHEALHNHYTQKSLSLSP
light: B3 light
notes: as for B6
KD fold (SG1 = 1) [18]: 1 fold
Kd [19]: 2.8 µM

B14: M103205H795-MY040/M103202L889-SK1 (antibody, human IgG1, kappa, name in EU numbering)
heavy: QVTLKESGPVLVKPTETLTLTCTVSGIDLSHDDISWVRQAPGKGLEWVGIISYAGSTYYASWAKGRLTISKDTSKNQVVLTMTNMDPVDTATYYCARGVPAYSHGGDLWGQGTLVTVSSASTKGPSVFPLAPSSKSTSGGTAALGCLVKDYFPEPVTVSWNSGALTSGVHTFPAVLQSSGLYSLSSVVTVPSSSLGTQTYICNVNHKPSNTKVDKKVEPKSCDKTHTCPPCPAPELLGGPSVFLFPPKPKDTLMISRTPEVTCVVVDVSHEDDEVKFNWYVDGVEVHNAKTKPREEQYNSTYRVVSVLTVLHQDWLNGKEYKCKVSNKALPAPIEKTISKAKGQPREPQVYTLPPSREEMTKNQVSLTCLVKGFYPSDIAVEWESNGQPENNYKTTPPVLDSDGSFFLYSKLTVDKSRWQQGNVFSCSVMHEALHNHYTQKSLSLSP
light: B3 light
notes: as for B6
KD fold (SG1 = 1) [15]: 3.9 fold
KD fold (SG1 = 1) [20]: 0.9 fold
Kd [17]: 5.5 µM

Continued, values first:

Kd [1]: 1.5 µM
KD fold (SG1 = 1) [2]: 0.24 fold
B1: MS1032LO06-MY335 (antibody, human IgG1, kappa)
heavy: B3 heavy with I238T, L297Q, Q313R, D415K
light: B3 light
notes: also called M103205H795-MY335; copies: 2 + 2

Kd [3]: 1.2 µM
Kd [4]: 2.7 µM
B2: M103205H795-MY536 / M103202L889-SK1 (antibody, human IgG1, kappa, name in EU numbering)
heavy: B3 heavy with A233G, L236W, I238T, S241V, L297Q
light: B3 light

Kd [1]: 3.9 µM
KD fold (SG1 = 1) [2]: 0.09 fold
B4: MS1032LO06-PK2 (antibody, human IgG1, kappa)
heavy: B3 heavy with I238N, D270E, L297Q, P398M, S402R, D415K
light: B3 light
notes: also called M103205H795-PK2; copies: 2 + 2

Kd [3]: 1.5 µM
Kd [4]: 5.2 µM
B5: M103205H795-MY535 / M103202L889-SK1 (antibody, human IgG1, kappa, name in EU numbering)
heavy: B3 heavy with A233G, L236W, I238T, L297Q
light: B3 light

Kd [1]: 4.9 µM
KD fold (SG1 = 1) [2]: 0.07 fold
B9: MS1032LO06-MY344 (antibody, human IgG1, kappa)
heavy: B3 heavy with I238N, Q313R, D415K
light: B3 light
notes: also called M103205H795-MY344; copies: 2 + 2

Kd [4]: 9.3 µM
B10: M103205H795-MY392 / M103202L889-SK1 (antibody, human IgG1, kappa, name in EU numbering)
heavy: B3 heavy with I238T, L297Q, S300L
light: B3 light
